Data taken from patent US8663616B2, “Enzymatic peracid generation for use in oral care products” (E I du Pont de Nemours and Company, priority 2010, dated 2014).

B1: EZ-20: C277S-EPEPEPEPEPE-link1-CXH201-H6, SEQ ID NO: 444 (protein)
chain: MAFFDLPLEELKKYRPERYEEKDFDEFWEETLAESEKFPLDPVFERMESHLKTVEAYDVTFSGYRGQRIKGWLLVPKLEEEKLPCVVQYIGYNGGRGFPHDWLFWPSMGYICFVMDTRGQGSGWLKGDTPDYPEGPVDPQYPGFMTRGILDPRTYYYRRVFTDAVRAVEAAASFPQVDQERIVIAGGSQGGGIALAVSALSKKAKALLCDVPFLCHFRRAVQLVDTHPYAEITNFLKTHRDKEEIVFRTLSYFDGVNFAARAKIPALFSVGLMDNISPPSTVFAAYNYYAGPKEIRIYPYNNHEGGGSFQAVEQVKFLKKLFEKGEPEPEPEPEPEGPGSGGAGSPGSAGGPGSWKTKKILLSRTRRIMRQVVRSVMHKIWHHHHHH
B2: EZ-22: C277S-EPEPEPEPEPE-Link1-CXHG2-H6, SEQ ID NO: 446 (protein)
chain: MAFFDLPLEELKKYRPERYEEKDFDEFWEETLAESEKFPLDPVFERMESHLKTVEAYDVTFSGYRGQRIKGWLLVPKLEEEKLPCVVQYIGYNGGRGFPHDWLFWPSMGYICFVMDTRGQGSGWLKGDTPDYPEGPVDPQYPGFMTRGILDPRTYYYRRVFTDAVRAVEAAASFPQVDQERIVIAGGSQGGGIALAVSALSKKAKALLCDVPFLCHFRRAVQLVDTHPYAEITNFLKTHRDKEEIVFRTLSYFDGVNFAARAKIPALFSVGLMDNISPPSTVFAAYNYYAGPKEIRIYPYNNHEGGGSFQAVEQVKFLKKLFEKGEPEPEPEPEPEGPGSGGAGSPGSAGGPGSPLWRRITKRKLVRPVATLMWYWFTSKRHHHHHH
B3: EZ-23: C277S-EPEPE-Link1-EPEPE-CXH104-H6, SEQ ID NO: 447 (protein)
chain: MAFFDLPLEELKKYRPERYEEKDFDEFWEETLAESEKFPLDPVFERMESHLKTVEAYDVTFSGYRGQRIKGWLLVPKLEEEKLPCVVQYIGYNGGRGFPHDWLFWPSMGYICFVMDTRGQGSGWLKGDTPDYPEGPVDPQYPGFMTRGILDPRTYYYRRVFTDAVRAVEAAASFPQVDQERIVIAGGSQGGGIALAVSALSKKAKALLCDVPFLCHFRRAVQLVDTHPYAEITNFLKTHRDKEEIVFRTLSYFDGVNFAARAKIPALFSVGLMDNISPPSTVFAAYNYYAGPKEIRIYPYNNHEGGGSFQAVEQVKFLKKLFEKGEPEGPGSGGAGSPGSAGGPGSEPERMLSRILRMFVRILKRERLSQVRGLFVHHHHHH
B4: EZ-21: C277S-EPEPE-link1-EPEPE-CXHG2-H6, SEQ ID NO: 445 (protein)
chain: MAFFDLPLEELKKYRPERYEEKDFDEFWEETLAESEKFPLDPVFERMESHLKTVEAYDVTFSGYRGQRIKGWLLVPKLEEEKLPCVVQYIGYNGGRGFPHDWLFWPSMGYICFVMDTRGQGSGWLKGDTPDYPEGPVDPQYPGFMTRGILDPRTYYYRRVFTDAVRAVEAAASFPQVDQERIVIAGGSQGGGIALAVSALSKKAKALLCDVPFLCHFRRAVQLVDTHPYAEITNFLKTHRDKEEIVFRTLSYFDGVNFAARAKIPALFSVGLMDNISPPSTVFAAYNYYAGPKEIRIYPYNNHEGGGSFQAVEQVKFLKKLFEKGEPEPEGPGSGGAGSPGSAGGPGSEPEPEPLWRRITKRKLVRPVATLMWYWFTSKRHHHHHH

Assay: Peracetic acid generated in solution by C277S CXH fusions (Example 9)
Settings: 0.5 μM enzyme, sarkosyl buffer, 100 mM triacetin, 100 mM H2O2, pH 7.2, 10 min, 37° C.

Row | Molecule | Peracetic acid (ppm) In Solution
1 | B1 | 2265 ppm
2 | B2 | 2305 ppm
3 | B3 | 2212 ppm
4 | B4 | 2764 ppm

Assay: Peracetic acid from C277S CXH fusions exposed to hydroxyapatite discs (Example 9)
Settings: disc-bound enzyme; 100 mM triacetin, 100 mM H2O2, 30 min, 37° C.; no enzyme control subtracted

Row | Molecule | Peracetic acid (ppm) Exposed to Hydroxyapatite, Disc
5 | B1 | 2795 ppm
6 | B2 | 2495 ppm
7 | B3 | 4463 ppm
8 | B4 | 3109 ppm

Same assay, conditions: unbound enzyme in supernatant after 10 μM enzyme on disc; no enzyme control subtracted

Row | Molecule | Peracetic acid (ppm) Exposed to Hydroxyapatite, Supernatant
9 | B1 | 1229 ppm
10 | B2 | 477 ppm
11 | B3 | 1712 ppm
12 | B4 | 1581 ppm
